Laboratory results: US20200017549A1, “NOVEL a4B7 PEPTIDE ANTAGONISTS” (Protagonist Therapeutics, Inc., priority 2013, published 2020)
Bridge positions count the residues as written; N and C are the ends. Square brackets hold non-standard residues; d marks the D form. Ends that are not written are not given here. NMeR = CN[C@@H](CCCNC(=N)N)C(=O)O

Biological target: T1, α4β7 (RPMI 8866 cells) (Homo sapiens, UniProt P13612+P26010)
T1 construct: host or cells: RPMI 8866 cells
T1 sequence (P13612 34-1032): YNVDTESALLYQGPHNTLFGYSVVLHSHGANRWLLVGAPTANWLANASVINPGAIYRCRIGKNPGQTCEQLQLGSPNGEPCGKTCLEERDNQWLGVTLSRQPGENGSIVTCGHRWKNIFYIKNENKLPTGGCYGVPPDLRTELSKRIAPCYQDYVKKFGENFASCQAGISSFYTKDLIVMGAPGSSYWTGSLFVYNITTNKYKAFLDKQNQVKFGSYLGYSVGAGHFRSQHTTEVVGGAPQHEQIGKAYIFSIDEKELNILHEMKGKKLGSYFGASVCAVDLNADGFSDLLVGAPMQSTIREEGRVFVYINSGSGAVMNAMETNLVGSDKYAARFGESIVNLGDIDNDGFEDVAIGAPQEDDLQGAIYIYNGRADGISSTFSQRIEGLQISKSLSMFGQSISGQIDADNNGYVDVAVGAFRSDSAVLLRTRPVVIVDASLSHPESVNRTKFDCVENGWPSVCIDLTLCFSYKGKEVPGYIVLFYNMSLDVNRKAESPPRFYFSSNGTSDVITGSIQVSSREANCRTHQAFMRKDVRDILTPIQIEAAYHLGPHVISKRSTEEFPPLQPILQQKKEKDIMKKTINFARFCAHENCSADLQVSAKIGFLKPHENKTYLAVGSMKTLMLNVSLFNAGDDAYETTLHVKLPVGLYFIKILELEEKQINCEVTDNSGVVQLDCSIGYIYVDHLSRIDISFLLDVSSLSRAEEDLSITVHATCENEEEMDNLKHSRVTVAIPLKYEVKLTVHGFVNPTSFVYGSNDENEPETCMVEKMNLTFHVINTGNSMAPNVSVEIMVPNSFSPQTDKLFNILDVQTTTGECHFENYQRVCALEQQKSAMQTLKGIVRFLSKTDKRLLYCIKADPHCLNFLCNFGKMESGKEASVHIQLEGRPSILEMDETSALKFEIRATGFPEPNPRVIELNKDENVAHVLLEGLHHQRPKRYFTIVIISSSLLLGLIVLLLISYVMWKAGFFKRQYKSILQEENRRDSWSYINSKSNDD
T1 sequence (P26010 20-798): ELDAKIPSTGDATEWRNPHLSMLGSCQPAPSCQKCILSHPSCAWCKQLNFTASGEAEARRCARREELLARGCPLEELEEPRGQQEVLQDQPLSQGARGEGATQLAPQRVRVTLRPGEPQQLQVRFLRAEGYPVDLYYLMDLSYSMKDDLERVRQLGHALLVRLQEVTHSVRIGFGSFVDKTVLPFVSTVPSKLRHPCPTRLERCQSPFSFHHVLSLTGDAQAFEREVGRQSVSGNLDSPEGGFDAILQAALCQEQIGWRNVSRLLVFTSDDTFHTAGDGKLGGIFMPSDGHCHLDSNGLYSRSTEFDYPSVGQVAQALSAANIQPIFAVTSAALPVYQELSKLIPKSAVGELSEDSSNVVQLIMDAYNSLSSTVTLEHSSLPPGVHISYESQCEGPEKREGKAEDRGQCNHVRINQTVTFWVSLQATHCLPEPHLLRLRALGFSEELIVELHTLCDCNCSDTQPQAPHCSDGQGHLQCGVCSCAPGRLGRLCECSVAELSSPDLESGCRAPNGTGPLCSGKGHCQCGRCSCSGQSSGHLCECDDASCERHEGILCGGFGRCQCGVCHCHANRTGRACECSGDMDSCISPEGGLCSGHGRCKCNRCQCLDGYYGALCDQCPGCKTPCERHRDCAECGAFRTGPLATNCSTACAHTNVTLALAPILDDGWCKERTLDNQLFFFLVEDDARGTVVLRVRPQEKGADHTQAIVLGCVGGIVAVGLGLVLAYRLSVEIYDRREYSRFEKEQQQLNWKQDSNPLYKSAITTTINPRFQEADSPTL
Assay: α4β7-MAdCAM Cell Adhesion Assay
Type: cell-based
Conditions: N-Me-Arg substituted, as compared to SEQ ID NO:39
Protocol: α4β7-MAdCAM Cell Adhesion Assay
RPMI 8866 cells (Sigma #95041316) are cultured in RPMI 1640 HEPES medium (Invitrogen #22400-089) supplemented with 10% serum (Fetal Bovine Serum, Invitrogen # 16140-071), 1 mM sodium pyruvate (Invitrogen #11360-070), 2 mM L-glutamine (Invitrogen # 25030-081) and Penicillin-Streptomycin (Invitrogen # 15140-122) at 100 units of penicillin and 100 μg of streptomycin per ml. The cells are washed two times in DMEM medium (ATCC #30-2002) supplemented with 0.1% BSA, 10 mM HEPES pH 7 and 1 mM MnCl2. The cells are re-suspended in supplemented DMEM medium at a density of 4×10^6 cells/ml.
A Nunc MaxiSorp plate was coated with rh MAdCAM-1/Fc Chimera (R&D #6065-MC) at 200 ng per well in 50 ul per well in 1×PBS and incubated at 4° C. overnight. The solution was then removed by shaking, blocked with 250 ul per well PBS containing 1% BSA, and incubated at 37° C. for 1 hr. The solution was removed by shaking. peptides are diluted by serial dilution in a final volume of 50 ul per well (2× concentration). To each well, 50 ul of cells (200,000 cells) are added and the plate is incubated at 37° C., 5% CO2 for 30-45 min to allow cell adhesion. […] The plate is shaken for 5 min and the absorbance at 570 nm is measured. To calculate the dose response, the absorbance value of control wells not containing cells is subtracted from each test well.

Substance: SEQ ID NO: 48: integrin antagonist peptide substituted with N-Me-Arg (C[NMeR]SDTLCK; disulfide 1-7)
- potency for α4β7 in cell adhesion assay: increased potency
